In US20110039257A1 one finds decrease in luminescence (luciferase activity) with versus without Akt1/PKB data, which are given here for one molecule.

This assay addresses Akt1/PKB alpha recombinant enzyme (Upstate Biotechnology). Nature of the assay: cell-based or functional assay.

Chain of Akt1/PKB alpha recombinant enzyme (Upstate Biotechnology) (P31749 whole entry): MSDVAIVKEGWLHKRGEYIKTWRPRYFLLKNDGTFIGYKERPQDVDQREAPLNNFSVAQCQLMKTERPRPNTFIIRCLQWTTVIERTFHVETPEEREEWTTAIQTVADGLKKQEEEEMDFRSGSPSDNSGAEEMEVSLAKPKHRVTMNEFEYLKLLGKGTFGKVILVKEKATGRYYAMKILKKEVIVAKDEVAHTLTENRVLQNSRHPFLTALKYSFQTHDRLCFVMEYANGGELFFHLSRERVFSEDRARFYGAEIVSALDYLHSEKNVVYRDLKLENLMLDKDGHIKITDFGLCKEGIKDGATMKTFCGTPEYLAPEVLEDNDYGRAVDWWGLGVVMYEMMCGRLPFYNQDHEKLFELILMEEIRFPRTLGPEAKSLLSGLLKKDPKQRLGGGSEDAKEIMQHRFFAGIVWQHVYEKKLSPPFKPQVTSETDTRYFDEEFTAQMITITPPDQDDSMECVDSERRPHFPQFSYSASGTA

B1: CPM firefly luciferase serine/threonine kinase biosensor, construct pBFB340: Met-(Luc2.0 A-544)-(linker X)-…-(…)-(Rad53p FHA2 domain)-(linker Y)-(Luc2.0 4-B) (protein, part only; not given: luciferase fragments and linkers, part only)
chain, part: RKRDRLGTLGIGGSSGGGSGGGGSGGGNGRFLTLKPLPDSIIQESLEIQQGVNPFFIGRSEDCNCKIEDNRLSRVHCFIFKKRHAVGKSMYESPAQGLDDIWYCHTGTNVSYLNNNRMIQGTKFLLQDGDEIKIIWDKNNKFVIGFKVEINDTTGLFNEGLGMLQEQRVVLKQTAEEKDLVKKL
As to B1, the decrease in luminescence (luciferase activity) with versus without Akt1/PKB was determined as 50%.
